Our source for the IC50, ka and kd values is patent US20100092465A1, “TREATMENT OF GRAFT-VERSUS-HOST DISEASE” (priority 2006, published 2010).

In assay [1] the target is T1, huIL-27 (Homo sapiens, UniProt Q14213+Q8NEV9).
T1 sequence (Q14213 21-229): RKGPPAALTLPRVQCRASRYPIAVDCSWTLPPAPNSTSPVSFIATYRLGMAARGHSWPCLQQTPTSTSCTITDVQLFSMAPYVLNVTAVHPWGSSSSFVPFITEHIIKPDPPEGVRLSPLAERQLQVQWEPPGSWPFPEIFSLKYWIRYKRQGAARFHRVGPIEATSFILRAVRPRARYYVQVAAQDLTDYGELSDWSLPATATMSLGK
T1 sequence (Q8NEV9 29-243): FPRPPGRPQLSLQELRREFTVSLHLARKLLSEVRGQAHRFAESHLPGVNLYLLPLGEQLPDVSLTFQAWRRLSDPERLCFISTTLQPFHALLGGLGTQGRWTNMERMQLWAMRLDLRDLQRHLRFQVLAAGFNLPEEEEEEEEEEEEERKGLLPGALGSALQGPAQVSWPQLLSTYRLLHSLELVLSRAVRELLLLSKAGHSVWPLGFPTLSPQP
Nature of the assay: Phospho-STAT3 neutralization assay, total human PBMCs, huIL-27. In kind it is cell-based. As to conditions: Total Human PBMCs; ligand huIL-27 at EC90. From the text: Whole mouse spleens were harvested from C57 B1/6 mice and washed two times with 1×PBS before being plated out at 2×10^5 cells/well in assay media (RPMI 1640 plus 10% fetal bovine serum) in 96-well, round-bottom tissue culture plates. Total human PBMC (peripheral blood mononuclear cells) were thawed from a frozen vial collected from a leukapherisis donation and washed two times with 1×PBS before being plated out at 10^6 cells/well in assay media in 96-well, round-bottom tissue culture plates. […] Following pre-incubation, treatments were added to the plates containing the cells and incubated together at 37° C. for 15 minutes.
Following incubation, cells were washed with ice-cold wash buffer (BIO-PLEX Cell Lysis Kit, BIO-RAD Laboratories, Hercules, Calif.) and put on ice to stop the reaction according to manufacturer's instructions. […]
Capture beads (BIO-PLEX Phospho-Stat3 Assay, BIO-RAD Laboratories) were combined with 50 μL of 1:1 diluted lysates and added to a 96-well filter plate according to manufacture's instructions (BIO-PLEX Phosphoprotein Detection Kit, BIO-RAD Laboratories). […] After the final wash, beads were resuspended in 125 μL/well of bead suspension buffer, shaken for 30 seconds, and read on an array reader (BIO-PLEX, BIO-RAD Laboratories) according to the manufacture's instructions. Data were analyzed using analytical softward (BIO-PLEX MANAGER 3.0, BIO-RAD Laboratories). […]

Assay [2] deals with T2, mouse ligand (single-chain IL27) (Mus musculus, UniProt O35228+Q8K3I6).
T2 construct: amino-terminal peptide tag (FLAG in lot A1426F) (N)
T2 sequence (O35228+Q8K3I6 with tags, fused parts or gaps): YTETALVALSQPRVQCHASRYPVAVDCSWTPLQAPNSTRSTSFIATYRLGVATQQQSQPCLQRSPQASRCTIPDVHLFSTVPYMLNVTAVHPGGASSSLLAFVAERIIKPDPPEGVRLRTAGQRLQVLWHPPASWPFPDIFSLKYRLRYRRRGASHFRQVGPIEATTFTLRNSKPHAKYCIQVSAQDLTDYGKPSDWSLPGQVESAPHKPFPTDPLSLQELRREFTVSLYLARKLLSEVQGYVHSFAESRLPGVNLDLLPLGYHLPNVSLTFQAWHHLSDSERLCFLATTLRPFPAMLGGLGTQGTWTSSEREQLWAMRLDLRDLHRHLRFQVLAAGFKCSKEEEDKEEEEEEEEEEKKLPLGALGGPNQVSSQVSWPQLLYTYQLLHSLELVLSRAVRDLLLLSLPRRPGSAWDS
Nature of the assay: SPR kinetics of soluble receptors with mouse IL27 ligand. The settings on record: binding with mouse ligand; gp130 not included. Here is the method:
Kinetic rate and affinity constant values for the mouse (IL27RAm(mFc1), Example 3) and human (IL27RA-Fc5, Example 4) soluble receptors were obtained by surface plasmon resonance (SPR) using an automated instrument (BIACORE 3000; Biacore International AB, Uppsala, Sweden). The mouse soluble receptor was tested against mouse ligand (lot A1418F), and the human soluble receptor was tested against both mouse (A1426F) and human (A1534F) ligands. For determination of the kinetic rate constants for the receptor-ligand interactions, the gp130 molecule was not included as part of the receptor complex.
The IL27 ligands used in this study were single-chain molecules comprising EBI3 connected by its C-terminus to the N-terminus of IL-27 p28 via a polypeptide linker. Each of the ligands included an amino-terminal peptide tag.
For the mouse IL27RA study, the soluble receptor was captured onto the chip surface by an isotype-specific anti-mouse Fc antibody (obtained from Jackson ImmunoResearch Laboratories, Inc., West Grove, Pa.) covalently immobilized to the chip (BIACORE CM5 chip) using the standard amine coupling protocol specified by the instrument manufacturer. […]
All data were assessed using software provided with the instrument (BIACORE Evaluation software v. 3.2). […]
A general note: SPR reads the build-up and loss of mass on a sensor chip optically.

By IC50 is commonly meant the midpoint of a concentration-inhibition curve. In the case of “human IL-27RA-Fc5: human IL27RA extracellular domain (amino acids 1 to 512 of SEQ ID NO:5) fused to Fc5, effector minus human gamma1 Fc; SEQ ID NO:3”, in assay [1], the IC50 stood at 0.95 nM. Besides, in assay [2], the ka amounted to 8.1e+06 M⁻¹ s⁻¹ and the kd came to 0.0018 s⁻¹.
